Positions count from the first letter of the chain named. Names may count otherwise.

Consider five molecules from paper PMC3861664 (The Journal of Biological Chemistry, 2013).

Experiment [1] addresses T1, glucagon receptor extracellular domain, wild type (recombinant, soluble) (Homo sapiens).
T1 construct: glucagon receptor (GCGR), human, extracellular domain; A biotinylated form was used for phage selections; also called GCGR ECD; WT ECD
T1 chain: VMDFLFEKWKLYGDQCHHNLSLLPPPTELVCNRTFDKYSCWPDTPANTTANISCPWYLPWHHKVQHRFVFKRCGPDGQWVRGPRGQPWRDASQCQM
Put plainly: AlphaScreen or HTRF; competition: soluble WT or G40S GCGR ECD against WT GCGR ECD on donor beads for binding to mAb7, its variants (IgG) or mAb1 on acceptor beads. Particulars: both partners purified. Background: Alpha assays give light when donor and acceptor beads are brought close together.

Experiment [2] addresses T2, glucagon receptor extracellular domain with the naturally occurring G40S mutation (recombinant, soluble) (human).
T2 chain: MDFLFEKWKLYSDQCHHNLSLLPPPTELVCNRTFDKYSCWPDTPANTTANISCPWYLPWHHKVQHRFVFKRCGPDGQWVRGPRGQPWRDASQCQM
Put plainly: AlphaScreen competition with WT ECD.

B1: mAb1, inhibitory anti-GCGR monoclonal antibody (antibody, V domains shown)
VH: QVQLVESGGGVVQPGRSLRLSCAASGFTFSSYGMHWVRQAPGKGLEWVAVMWYDGSNKDYVDSVKGRFTISRDNSKNTLYLQMNRLRAEDTAVYYCAREKDHYDILTGYNYYYGLDVWGQGTTVTVSS
VL: DIQMTQSPSSLSASVGDRVTITCRASQGIRNDLGWYQQKPGKAPKRLIYAASSLESGVPSRFSGSGSGTEFTLTISSVQPEDFVTYYCLQHNSNPLTFGGGTKVEIK
notes: as the heavy chain of the mAb1 Fab in PDB 4LF3 and 4ERS; as the light chain of the mAb1 Fab in PDB 4LF3 and 4ERS; also called anti-GCGR mAb1
Take B1: the binding result in experiment [1] was “binds”.

B2: mAb7.v35, humanized mAb7 with S54T/N97G (IgG) (antibody, V domains shown)
VH: EVQLVESGPGLVKPSETLSLSCTVSGDSITSGFWNWIRQPPGKGLEWIGYIGFTGSTYYNPSLKSRVTISRDTSKNQYSLKLSSVTAADTAVYYCASVDGSAALDYWGQGTLVTVSS
VL: DIVMTQTPLSLPVTPGQPASISCRSSQSLVHSNGNTYLHWYLQKPGQSPQLLIYKVSNRFSGVPDRFSGSGSGTDFTLKISRVEAEDVGVYYCSQSTHVPWTFGQGTKVEIK
notes: mAb7.v1 heavy chain with S54T (CDR H2) and N97G (CDR H3); that is the heavy chain of m13 (PDB 4LEX) with S28T put back and N97G added; as the light chain of m13 (PDB 4LEX); IgG; The methods say that mutations found in the humanised background were also introduced into murine mAb7 clones; source: recombinant antibody
For orientation: IC50 means the midpoint of a concentration-inhibition curve. B2: the concentration for half-maximal inhibition (IC50) in experiment [2] worked out at 21 nM. Further, the binding result in experiment [1] is given as “binds”.

B3: mAb7.v1, humanized version of mAb7 (IgG) (antibody, V domains shown)
VH: B2 VH with T54S, G100N
VL: B2 VL
notes: as the light chain of m13 (PDB 4LEX); IgG; source: recombinant antibody
Take B3: the binding result in experiment [1] is recorded as “binds”.

B4: mAb7.v19, humanized mAb7 with N97G (IgG) (antibody, V domains shown)
VH: B2 VH with T54S
VL: B2 VL
notes: mAb7.v1 heavy chain with N97G (CDR H3); that is the heavy chain of m13 (PDB 4LEX) with S28T and S54T put back and N97G added; as the light chain of m13 (PDB 4LEX); IgG; also called N97G containing antibody; source: recombinant antibody
For B4, the IC50 in experiment [2] was 87 nM. Further, the binding result in experiment [1] is listed as “binds”.

B5: mAb7.v11, humanized mAb7 with S54T (IgG) (antibody, V domains shown)
VH: B2 VH with G100N
VL: B2 VL
notes: mAb7.v1 heavy chain with S54T (CDR H2); that is the heavy chain of m13 (PDB 4LEX) with S28T put back; as the light chain of m13 (PDB 4LEX); IgG; also called S54T alone; source: recombinant antibody
Regarding B5, in experiment [1], the binding result is on record as “binds”.
